Measurements from US20200181262A1 (published 2020).

What was measured:
[1] = molecular target: T1, recombinant human FcRn (Sino Biological Inc. Cat. No. CT009-H08H) (human, UniProt P55899 24-290; P61769 21-119); assay: scFv competition ELISA vs biotinylated parent murine antibody, captured FcRn, pH 6
T1 construct: Bought protein; also called hFcRn (SINO); immobilized FcRn
Procedure: (§1) A total of about 60 scFv antibodies from the VH CDR3 and VL CDR3 libraries were selected for further study. The scFv antibodies were prepared from bacterial periplasmic extracts, and tested by competition ELISA at pH 6.0 and pH 7.4. […] As in the ELISA used to test humanized variants, a 96 well flat bottom microtitre plate was pre-coated with 1 μg/ml of an FcRn antibody specific for an albumin-binding epitope distinct from the Fc-binding region. Binding was determined at pH 7.4 and pH 6.0.

[2] = molecular target: T1, recombinant human FcRn (Sino Biological …); assay: scFv competition ELISA vs biotinylated parent murine antibody, captured FcRn, pH 7.4
Procedure: as §1

[3] = molecular target: T2, FcRn (analyte of the BIACORE studies of Tables 9-11, tables titled anti-human FcRn mAbs) (human, UniProt P55899 24-290; P61769 21-119); assay: SPR, antibody captured on protein A, FcRn 50-0.02 nM, 1:1 model
T2 construct: also called analyte (FcRn)
Procedure: For kinetic analysis, a 2-fold dilution range was selected from 50-0.02 nM FcRn. The association phase of FcRn analyte was monitored for 450 seconds, and dissociation was measured for 1500 seconds, at 40 μl/min. Fc1 was a reference channel and was subtracted from other flow cells to correct for non-specific binding. Kinetic values are based on a 1:1 binding model (Table 11).

[4] = molecular target: T2, FcRn (analyte of the BIACORE studies of …); assay: SPR (BIACORE), antibody immobilized on CM5, FcRn injected, 1:1 Langmuir, pH 6.0
Procedure: (§2) Antibodies were diluted into 10 mM NaAc, pH 4.5, and immobilized onto BIACORE® CM5 chips to RU levels of approximately 500-1000. Analysis was performed by injection of FcRn at concentrations of 12-800 nM in 1×PBS-P at pH 7.4 or pH 6.0.

[5] = molecular target: T2, FcRn (analyte of the BIACORE studies of …); assay: SPR (BIACORE), antibody immobilized on CM5, FcRn injected, 1:1 Langmuir, pH 7.4
Procedure: as §2

T1 sequence (P55899 24-290 limits assumed, chain 1 of 2): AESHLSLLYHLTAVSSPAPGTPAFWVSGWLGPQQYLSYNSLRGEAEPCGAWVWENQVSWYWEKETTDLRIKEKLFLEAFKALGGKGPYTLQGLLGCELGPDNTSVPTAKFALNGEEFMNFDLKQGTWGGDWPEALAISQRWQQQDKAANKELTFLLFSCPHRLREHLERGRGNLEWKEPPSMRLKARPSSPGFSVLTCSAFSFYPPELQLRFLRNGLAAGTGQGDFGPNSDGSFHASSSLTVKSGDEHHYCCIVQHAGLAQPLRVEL
T1 sequence (P61769 21-119 limits assumed, chain 2 of 2): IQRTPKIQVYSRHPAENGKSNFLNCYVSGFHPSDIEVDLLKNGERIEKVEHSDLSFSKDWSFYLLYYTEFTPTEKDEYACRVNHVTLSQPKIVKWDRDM
T2 sequence (P55899 24-290 limits assumed, chain 1 of 2): as the sequence (P55899 24-290 limits assumed, chain 1 of 2) above
T2 sequence (P61769 21-119 limits assumed, chain 2 of 2): as the sequence (P61769 21-119 limits assumed, chain 2 of 2) above

Row | Binder | fold decrease in IC50 (relative to humanized parent scFV) [1] | fold decrease in IC50 (relative to humanized parent scFV) [2] | other results
1 | H1 VH1 scFv with humanized parental Vκ1 (scFv, from bacterial periplasmic extracts) scFv: QVQLVQSGAELKKPGASVKLSCKASGYTFTSYGISWVKQATGQGLEWIGEIYPRSGNTYYNEKFKGRATLTADKSTSTAYMELRSLRSEDSAVYFCARSTTVSPPPLWGTGTTVTVSSGGGGSGGGGSGGGGSDIQMTQSPSYLSASVGDRVTITCKASDHINNWLAWYQQKPGQAPRLLISGATSLETGVPSRFSGSGTGKDYTLTISSLQTEDFATYYCQQYWSTPYTFGGGTKVEIK | 17.1 fold | 36.4 fold | –
2 | C4 VH1 scFv with humanized parental Vκ1 (scFv) scFv: QVQLVQSGAELKKPGASVKLSCKASGYTFTSYGISWVKQATGQGLEWIGEIYPRSGNTYYNEKFKGRATLTADKSTSTAYMELRSLRSEDSAVYFCARSTTVAPPRLWGTGTTVTVSSGGGGSGGGGSGGGGSDIQMTQSPSYLSASVGDRVTITCKASDHINNWLAWYQQKPGQAPRLLISGATSLETGVPSRFSGSGTGKDYTLTISSLQTEDFATYYCQQYWSTPYTFGGGTKVEIK | 18.6 fold | 24.4 fold | –
3 | E4 VH1 scFv with humanized parental Vκ1 (scFv) scFv: QVQLVQSGAELKKPGASVKLSCKASGYTFTSYGISWVKQATGQGLEWIGEIYPRSGNTYYNEKFKGRATLTADKSTSTAYMELRSLRSEDSAVYFCARSTTVHPDHNWGTGTTVTVSSGGGGSGGGGSGGGGSDIQMTQSPSYLSASVGDRVTITCKASDHINNWLAWYQQKPGQAPRLLISGATSLETGVPSRFSGSGTGKDYTLTISSLQTEDFATYYCQQYWSTPYTFGGGTKVEIK | 3.65 fold | 16.8 fold | –
4 | H4 VH1 scFv with humanized parental Vκ1 (scFv) scFv: QVQLVQSGAELKKPGASVKLSCKASGYTFTSYGISWVKQATGQGLEWIGEIYPRSGNTYYNEKFKGRATLTADKSTSTAYMELRSLRSEDSAVYFCARSTTVSAPGVWGTGTTVTVSSGGGGSGGGGSGGGGSDIQMTQSPSYLSASVGDRVTITCKASDHINNWLAWYQQKPGQAPRLLISGATSLETGVPSRFSGSGTGKDYTLTISSLQTEDFATYYCQQYWSTPYTFGGGTKVEIK | 6.5 fold | 9.29 fold | –
5 | A7 VH1 scFv with humanized parental Vκ1 (scFv) scFv: QVQLVQSGAELKKPGASVKLSCKASGYTFTSYGISWVKQATGQGLEWIGEIYPRSGNTYYNEKFKGRATLTADKSTSTAYMELRSLRSEDSAVYFCARSTTVSPPPIWGTGTTVTVSSGGGGSGGGGSGGGGSDIQMTQSPSYLSASVGDRVTITCKASDHINNWLAWYQQKPGQAPRLLISGATSLETGVPSRFSGSGTGKDYTLTISSLQTEDFATYYCQQYWSTPYTFGGGTKVEIK | 17 fold | 20 fold | –
6 | A4 VH1 scFv with humanized parental Vκ1 (scFv) scFv: QVQLVQSGAELKKPGASVKLSCKASGYTFTSYGISWVKQATGQGLEWIGEIYPRSGNTYYNEKFKGRATLTADKSTSTAYMELRSLRSEDSAVYFCARSTTVSPADFRGTGTTVTVSSGGGGSGGGGSGGGGSDIQMTQSPSYLSASVGDRVTITCKASDHINNWLAWYQQKPGQAPRLLISGATSLETGVPSRFSGSGTGKDYTLTISSLQTEDFATYYCQQYWSTPYTFGGGTKVEIK | 5.04 fold | 7.18 fold | –
7 | G4 VH1 scFv with humanized parental Vκ1 (scFv) scFv: QVQLVQSGAELKKPGASVKLSCKASGYTFTSYGISWVKQATGQGLEWIGEIYPRSGNTYYNEKFKGRATLTADKSTSTAYMELRSLRSEDSAVYFCARSTTVSPPHLWGTGTTVTVSSGGGGSGGGGSGGGGSDIQMTQSPSYLSASVGDRVTITCKASDHINNWLAWYQQKPGQAPRLLISGATSLETGVPSRFSGSGTGKDYTLTISSLQTEDFATYYCQQYWSTPYTFGGGTKVEIK | 18.9 fold | 29 fold | –
8 | G9 VH1 scFv with humanized parental Vκ1 (scFv) scFv: QVQLVQSGAELKKPGASVKLSCKASGYTFTSYGISWVKQATGQGLEWIGEIYPRSGNTYYNEKFKGRATLTADKSTSTAYMELRSLRSEDSAVYFCARSTTVSPPRVWGTGTTVTVSSGGGGSGGGGSGGGGSDIQMTQSPSYLSASVGDRVTITCKASDHINNWLAWYQQKPGQAPRLLISGATSLETGVPSRFSGSGTGKDYTLTISSLQTEDFATYYCQQYWSTPYTFGGGTKVEIK | 21.7 fold | 25.3 fold | –
9 | H2 VH1 scFv with humanized parental Vκ1 (scFv) scFv: QVQLVQSGAELKKPGASVKLSCKASGYTFTSYGISWVKQATGQGLEWIGEIYPRSGNTYYNEKFKGRATLTADKSTSTAYMELRSLRSEDSAVYFCARSTTVAPPAHWGTGTTVTVSSGGGGSGGGGSGGGGSDIQMTQSPSYLSASVGDRVTITCKASDHINNWLAWYQQKPGQAPRLLISGATSLETGVPSRFSGSGTGKDYTLTISSLQTEDFATYYCQQYWSTPYTFGGGTKVEIK | 14.2 fold | 23.8 fold | –
10 | G7 VH1 scFv with humanized parental Vκ1 (scFv) scFv: QVQLVQSGAELKKPGASVKLSCKASGYTFTSYGISWVKQATGQGLEWIGEIYPRSGNTYYNEKFKGRATLTADKSTSTAYMELRSLRSEDSAVYFCARSTTVAPPGHWGTGTTVTVSSGGGGSGGGGSGGGGSDIQMTQSPSYLSASVGDRVTITCKASDHINNWLAWYQQKPGQAPRLLISGATSLETGVPSRFSGSGTGKDYTLTISSLQTEDFATYYCQQYWSTPYTFGGGTKVEIK | 17.7 fold | 30.8 fold | –
11 | F7 VH1 scFv with humanized parental Vκ1 (scFv) scFv: QVQLVQSGAELKKPGASVKLSCKASGYTFTSYGISWVKQATGQGLEWIGEIYPRSGNTYYNEKFKGRATLTADKSTSTAYMELRSLRSEDSAVYFCARSTTVAPPPLWGTGTTVTVSSGGGGSGGGGSGGGGSDIQMTQSPSYLSASVGDRVTITCKASDHINNWLAWYQQKPGQAPRLLISGATSLETGVPSRFSGSGTGKDYTLTISSLQTEDFATYYCQQYWSTPYTFGGGTKVEIK | 16.4 fold | 26.4 fold | –
12 | E7 VH1 scFv with humanized parental Vκ1 (scFv) scFv: QVQLVQSGAEPKKPGASVKLSCKASGYTFTSYGISWVKQATGQGLEWIGEIYPRSGNTYYNEKFKGRATLTADKSTSTAYMELRSLRSEDSAVYFCARSTTVSPPHLWGTGTTVTVSSGGGGSGGGGSGGGGSDIQMTQSPSYLSASVGDRVTITCKASDHINNWLAWYQQKPGQAPRLLISGATSLETGVPSRFSGSGTGKDYTLTISSLQTEDFATYYCQQYWSTPYTFGGGTKVEIK | 16.4 fold | 37.4 fold | –
13 | H1VH1_Vκ2 antibody (antibody, IgG4, V domains shown) VH: QVQLVQSGAELKKPGASVKLSCKASGYTFTSYGISWVKQATGQGLEWIGEIYPRSGNTYYNEKFKGRATLTADKSTSTAYMELRSLRSEDSAVYFCARSTTVSPPPLWGTGTTVTVSS VL: DIQMTQSPSSLSASVGDRVTITCKASDHINNWLAWYQQKPGQAPRLLISGATSLETGVPSRFSGSGTGKDYTLTISSLQPEDFATYYCQQYWSTPYTFGGGTKVEIK | – | – | Kd [3]: 0.32 nM; koff [3]: 9.28e-05 s⁻¹; kon [3]: 289000 M⁻¹ s⁻¹
14 | VH1_A8/Vκ2_E8 IgG4 (antibody, V domains shown, bivalent IgG4, kappa; also called A8VH1E8Vκ2; A8/E8VK2) VH: QVQLVQSGAELKKPGASVKLSCKASGYTFTSYGISWVKQATGQGLEWIGEIYPRSGNTYYNEKFKGRATLTADKSTSTAYMELRSLKSEDSAVYFCARSTTVSPPAHWGTGTTVTVSS VL: DIQMTQSPSSLSASVGDRVTITCKASDHINNWLAWYQQKPGQAPRLLISGATSLETGVPSRFSGSGTGKDYTLTISSLQTEDFATYYCHQYYSTPYTFGGGTKVEIK | – | – | Kd [4]: 1.4 nM; koff [4]: 0.000438 s⁻¹; kon [4]: 319000 M⁻¹ s⁻¹; Kd [5]: 18.2 nM; koff [5]: 0.000679 s⁻¹; kon [5]: 43800 M⁻¹ s⁻¹
15 | VH1_G4/Vκ2_E8 IgG4 (antibody, V domains shown, bivalent IgG4, kappa; also called G4VH1E8Vκ2) VH: QVQLVQSGAELKKPGASVKLSCKASGYTFTSYGISWVKQATGQGLEWIGEIYPRSGNTYYNEKFKGRATLTADKSTSTAYMELRSLRSEDSAVYFCARSTTVSPPHLWGTGTTVTVSS VL: DIQMTQSPSSLSASVGDRVTITCKASDHINNWLAWYQQKPGQAPRLLISGATSLETGVPSRFSGSGTGKDYTLTISSLQTEDFATYYCHQYYSTPYTFGGGTKVEIK | – | – | Kd [4]: 1.3 nM; koff [4]: 0.000298 s⁻¹; kon [4]: 229000 M⁻¹ s⁻¹; Kd [5]: 13.1 nM; koff [5]: 0.000544 s⁻¹; kon [5]: 54300 M⁻¹ s⁻¹
